Assay [1] concerns the target tau 299-369 (human). The experiment in a line: ELISA on biotinylated peptide captured on streptavidin plate, IgG titrated [a]. For orientation: ELISA stands for enzyme-linked immunosorbent assay.
Assay [2] addresses tau 299-369 (human). The description is as above. The source holds these as a separate data set.
In assay [3] the target is tau 299-369 (human). The assay can be described thus: peptide ELISA, 1 ug/mL.
Assay [4] deals with tau 299-369 (human). The assay can be described thus: peptide ELISA, 1 ug/mL. This is another data set of the same source.

We go through one molecule from patent publication US20170210787A1 (Janssen / Centocor, published 2017).

Where two headings read alike, the source gives them in different places. Where only a bound is given, the exact number is not on record here.

B1: CBTAU-27.1 (antibody, V domains shown)
VH: QVQLVESGPEMRKPGESLKISCKTSGYIFSDYWTAWVRQLPGKGLQWMGIIYSGDSDTRYHPSVQGHVTMSTDSSLTTAYLQWSSLKASDTGIYYCARLDARVDAGWQLDSWGQGTLVTVSS
VL: DIQLTQSPDSLAVSLGERATINCKSSQSVFSRDNNKNYLAWYQHKSGQPPKLLFFWASSRESGVSDRFSGSGSGTDFTLTIDNLQAEDVALYYCQHYFNTPHNFGQGTKLEIK
Take B1: the figures for the “EC50 (read off the curve)” value with tau 299-369 [1] and in the assay with tau 299-369 [2] were approximately 0.2 µg/mL and approximately 0.1 µg/mL, respectively. Besides, the OD450 with tau 299-369 [3] is 1 to 1.5 od; with tau 299-369 [4], more than 1.5 od.

The term EC50 (read off the curve) denotes the midpoint of the concentration-response curve.
